The values that follow come from US10494417B2, “Peptide inhibitors of BCR-ABL oligomerization” (University of Utah Research Foundation, priority 2014, dated 2019).

“Also recorded” adds a separate entry of the source.

Assay [1] has as its system Ba/F3-p210-T315I cells. Description: Trypan blue proliferation assay of transfected Ba/F3-p210-T315I cells. The note with it: CC^mut3 alone, trypan blue exclusion, 72 and 96 h. The class given is cell-based, mouse. Here is the method:
Cell counts were performed using a standard light microscope.

For assay [2], the system named is CML CD34+ cells expressing BCR-ABL1T315I. Description: Liquid culture of primary T315I CML cells. It is filed as cell-based, human. The note with it: CC^mut3 or increasing concentrations of ponatinib (FIG. 28C). As for the experimental part: (§1) Cell proliferation was assessed using the CellTiter 96® AQueous One Solution Cell Proliferation Assay (MTS assay, Promega) according to manufacturer instructions. Briefly, 5,000 viable cells were added to a single well in 96-well plate in 100 μL RPMI1640. Three independent samples were seeded in duplicate for each time point. […] In some experiments, cell proliferation was assessed using a Neubauer chamber and trypan blue dye exclusion.

Assay [3] has as its system Ba/F3 cells expressing BCR-ABL1E255V/T315I. Description: Proliferation of transfected Ba/F3 BCR-ABL1 E255V/T315I cells (MTS assay). It is filed as cell-based, mouse. The note with it: MTS assay at 72 and 96 h, CCmut3 vs EV. Here is the method: Stable recombinant Ba/F3 cells transduced with wild type p210 BCR-ABL1 (Daley, G. Q., et al. (1991) Proc. Natl. Acad. Sci. U.S.A. 88, 11335-11338), the kinase domain mutants p210^T315I p210^[…], or the compound mutant p210^E255V/T315I were as previously described (La Rosee, P., et al. (2002) Cancer Res. 62, 7149-7153; O'Hare, T., et al. (2004) Blood 104, 2532-2539). These cells were cultured in RPMI with 10% FBS, 1% penicillin, streptomycin, glutamine, and 0.1% gentamycin (RPMI1640). Additionally 0.1% MycoZap™ (Lonza Bio, Basel, Switzerland) was added to prevent mycoplasma contamination. […]
Cell proliferation was assessed using the CellTiter 96® AQueous One Solution Cell Proliferation Assay (MTS assay, Promega) according to manufacturer instructions. […] In some experiments, cell proliferation was assessed using a Neubauer chamber and trypan blue dye exclusion. […]
(§2) Cell proliferation was assessed using a […] viability assay (MTS assay) utilizing CellTiter 96® AQueous One Solution Cell Proliferation Assay (Promega) according to manufacturer instructions. […] Cell growth was assessed by MTS assay at 72 and 96 h. […] In patient sample experiments, cell proliferation was assessed by trypan blue exclusion.

Assay [4] deals with Ba/F3-P210 cells. Nature of the assay: Viability of transfected Ba/F3-p210 cells (trypan blue exclusion). The class given is cell-based, mouse. The settings on record: 72 h following transfection, vs mCherry control, n=1. Here is the method:
Two days following cell passaging, 3.0×10^6 cells were collected by centrifugation at 750×g for 10 min for each transfection group. Following collection, 4 μg DNA was transfected into cells according to the Cell Line Nucleofector® Kit V protocol (program X-001) using the Amaxa Nuelcofector II. Following nucleofection, the DNA/cell mixture was added to 500 μL plain RPMI and incubated for 20 min. After incubation, the 500 μL cell/DNA/RPMI mixture was added to complete RPMI 1640 media and allowed to incubate at 37° C. for 72 h until analysis.
Forty-eight or 72 h following transfection, 100 μL of treated K562 or Ba/F3-p210 cells was mixed with 100 μL trypan blue solution (Life Technologies). The numbers of viable cells (those impermeable to the trypan blue dye) from four different quadrants in an INCYTO™ C-CHIP™ Neubauer hemacytometer (VWR International, Radnor, Pa., USA) were counted using a standard light microscope. Quadrant counts were then averaged to obtain the number of viable cells per mL. For experiments using the Helix2mut3 construct, counts were performed on one aliquot per transfection (n=3 in replicate). In experiments involving the CappedHelix2mut3 construct, counts were performed three times using separate 100 pt aliquots from one transfection (n=1 in triplicate).

Assay [5] relates to Ba/F3 cells expressing native BCR-ABL1 (Ba/F3-p210). Description: Annexin V/7-AAD apoptosis assay in transfected Ba/F3-p210 cells. It is filed as cell-based, mouse. Here is the method:
Assays were run in triplicate (n=3).
(§3) For analysis of apoptosis and cell death, cells were pelleted and resuspended in Annexin V-binding buffer (BD Biosciences), stained with anti-Annexin V-APC (BD Biosciences or Life Technologies) and 7-AAD (BD Biosciences or Life Technologies) and analyzed on a BD FACSCanto flow cytometer. In addition to the APC and 7-AAD channels, GFP- and mCherry-positive cells were also recorded.
(§4) For analysis of apoptosis and necrotic cell death, cells were pelleted and resuspended in Annexin V-binding buffer (BD Biosciences), stained with anti-Annexin V-APC and 7-AAD (BD Biosciences or Life Technologies) and analyzed on a BD FACSCanto flow cytometer. In addition to the APC and 7-AAD channels, GFP- and mCherry-positive cells were also recorded.

For assay [6], the system named is Ba/F3 cells expressing BCR-ABL1T315I. Nature of the assay: Proliferation of transfected Ba/F3 BCR-ABL1 T315I cells (MTS assay). The class given is cell-based, mouse. The settings on record: CCmut3 vs EV; for proliferation, in words: MTS assay at 72 and 96 h. As for the experimental part:
Stable recombinant Ba/F3 cells transduced with wild type p210 BCR-ABL1 (Daley, G. Q., et al. (1991) Proc. Natl. Acad. Sci. U.S.A. 88, 11335-11338), the kinase domain mutants p210^T315I p210^[…], or the compound mutant p210^E255V/T315I were as previously described (La Rosee, P., et al. (2002) Cancer Res. 62, 7149-7153; O'Hare, T., et al. (2004) Blood 104, 2532-2539). These cells were cultured in RPMI with 10% FBS, 1% penicillin, streptomycin, glutamine, and 0.1% gentamycin (RPMI1640). Additionally 0.1% MycoZap™ (Lonza Bio, Basel, Switzerland) was added to prevent mycoplasma contamination. The non-transduced parental Ba/F3 cell line was grown in RPMI1640 supplemented with 20% WEHI-3B conditioned medium as a source of murine IL-3 (Dexter, T. M., et al. (1980) J. Exp. Med. 152, 1036-1047). Ba/F3 cells were transfected with plasmid DNA using the Amaxa nucleofection system (Lonza Bio), following the manufacturer's instructions. Cells were sorted on a BD FACSAria cytometer (BD Biosciences, San Jose, Calif.) for double-positive cells expressing mCherry and GFP then returned to RPMI1640 for subsequent experiments.
as §1
Stable Ba/F3 cells transduced with native (p210) BCR-ABL1, the kinase domain mutants BCR-ABL1T315I, BCR-ABL1E255V, or the compound mutant BCR-ABL1E255V/T315I were cultured. […]
as §2
Background: Tetrazolium assays rely on reduction of a dye to a coloured formazan, in cell work by metabolically active cells.

In assay [7] the test system is Ba/F3 cells expressing BCR-ABL1E255V/T315I. Nature of the assay: Annexin V/7-AAD apoptosis assay in Ba/F3 BCR-ABL1 E255V/T315I cells. The settings on record: 72 h, CCmut3 vs EV. It is filed as cell-based, mouse. As for the experimental part: as §3, §4

B1: CCmut3: modified Bcr-Abl coiled-coil domain (residues 1-72) with mutations C38A, K39E, S41R, L45D, E48R, Q60E (protein)
chain: MVDPVGFAEAWKAQFPDSEPPRMELRSVGDIEQELERAEARIRRDEQRVNQERFRMIYLETLLAKEKKSYDR
Turning to B1, the cell proliferation entry in assay [1] is “inhibit Ba/F3-p210-T315I cell proliferation”. For the same molecule, in assay [2], the “effect in liquid culture” value is reported as “no effect”. Moreover, the “proliferation, in words” value in assay [3] was “small yet significant growth reduction at 96 h but not 72 h; also recorded: significantly reduced proliferation of compound mutant cells at 96 h”; in assay [3] (listed as CC^mut3), “significant growth reduction at 96 h; also recorded: smaller yet significant reduction in proliferation at 96 h”; in assay [6], “significant reduction of proliferative capacity; also recorded: lesser, yet significant difference was noted at the 72 h time point”; in assay [6] (listed as CC^mut3), “significant reduction”. In addition, the “proliferation/viability of Ba/F3-p210 cells” value in assay [4] is “replicated to a similar extent”. The “apoptosis, in words” value is recorded as “increases apoptosis” in assay [5] (72 h, CCmut3 vs EV); “Enhanced apoptosis; also recorded: effectively induced apoptosis” in assay [7]; “significantly more apoptotic; also recorded: sensitive” in assay [7] (listed as CC^mut3). In addition, the “increase of apoptotic cells” value in assay [5] (72 h, CCmut3 vs EV) is “approximately 3 fold”. For the same molecule, in assay [5] (CC^mut3 versus EV control (FIG. 14B)), the “increase in apoptotic population” value is reported as “more than 30%”. Also, the reduction of proliferation result in assay [6] (96 h, MTS assay) is listed as “approximately 3 fold”.
